# Values joined by “and” are separate entries in the source; they are usually repeats but may differ in a detail not shown here. Identical values can stand only once.
# Target: eight amino acid-mutated FcγRIIIa without glycosylation (ligand of the TSKgel FcR-IIIA-NPR column) (UniProt P08637)
# Assay: FcγRIIIa affinity column chromatography
# Chain of UniProt P08637 (P08637 17-208, change not shown): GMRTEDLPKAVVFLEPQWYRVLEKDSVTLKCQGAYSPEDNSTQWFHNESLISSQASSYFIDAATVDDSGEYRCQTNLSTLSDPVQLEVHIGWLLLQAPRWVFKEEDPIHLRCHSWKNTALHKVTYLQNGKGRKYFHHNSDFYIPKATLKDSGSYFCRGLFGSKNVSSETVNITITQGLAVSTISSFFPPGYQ
row,Substance,retention time
1,full-length mogamulizumab 4 (antibody),12.1 min and 14.8 min and 17.2 min
2,full-length trastuzumab 2 (antibody),9.8 min and 12.2 min and 14.7 min
3,full-length rituximab with trisaccharide 7 (antibody),4.3 min
4,Fc fragment of rituximab after papain digestion 5 (domain or fragment),11.2 min and 13.6 min and 16 min
5,full-length cetuximab 3 (antibody),10.7 min and 13.3 min and 15.1 min
6,full-length rituximab 1 (antibody),10.2 min and 12.6 min and 15 min
7,Fc fragment of rituximab with full-length glycan 10 (domain or fragment),16.4 min
8,full-length rituximab with full-length glycan 8 (antibody),15.6 min

# Source: paper PMC10173337
